Results from patent US20240041976A1, “COMPOSITION AND USE” (priority 2020, published 2024).

Experiments:
Assay in all cases: microbe, parasite or virus in culture
S. haemolyticus 4071 = details: 4071; for MIC: individual component
Description: (§1) Growth inhibition assays were performed in 96-well microtiter plates as described previously (Chi and Holo, 2018, supra). Briefly, 135 μl of TSB were dispensed in each well of a microtiter plate (according to the number of bacterial strains tested) except in the wells of the first row. The antimicrobials were diluted in TSB to working concentrations in a final volume of 285 μl and dispensed in the wells of the first row. The working concentrations were 100 μg/μl for garvicin KS, 10 μg/μl for micrococcin P1 and 1 mg/ml for penicillin G. From the first row, 150 μl of the antimicrobials were then serially diluted (two-fold dilutions) in a sequential fashion until the last row of the plate. Finally, 15 μl of a fresh O/N culture of each strain were added in the appropriate wells to reach a final volume of 150 μl in each well. The plates were then incubated at 37° C. for 24 h. The growth inhibition was expressed as minimum inhibitory concentration (MIC50), which refers to the minimum concentration of the antimicrobial needed to reduce at least 50% of the microbial growth compared to the untreated control. The MIC50 was assessed by optical density readings at 600 nm (O.D.600).
(§2) Synergistic interactions between antimicrobials were determined using the fractional inhibition concentration (FIC). The FIC values were calculated as follows: the sum of the FIC =FICa+FICb+FICc, where the FICa means MIC of A in combination/MIC of A alone, FICb means MIC of B in combination/MIC of B, and FICc means MIC of C in combination/MIC of C alone. Effects were considered as synergistic if FIC was ≤0.5 for two components mixture and ≤0.75 for three components mixture.
(§3) Bacteriocins and antimicrobial assays. […] These bacteriocins were all solubilized in 0.1% (vol/vol) trifluoracetic acid (TFA; Sigma-Aldrich). […] Cell growth inhibition assays and antimicrobial synergy determination was performed in line with Example 1.
(§4) To investigate whether there was synergy between the three bacteriocins (K1-EJ, GarKS and MP1), a checkboard antimicrobial assay was performed. The selected strains were treated for 5, 24 and 48 h with a range of concentrations of K1-EJ, GarKS and MP1 alone or in different combinations.

S. haemolyticus 4072 = details: 4072; for MIC: individual component
Description: as §1, §2, §3, §4

S. haemolyticus 4068 = details: 4068; for MIC: individual component
Description: as §1, §2, §3, §4

S. haemolyticus 4073 = details: 4073; for MIC: individual component
Description: as §1, §2, §3, §4

S. haemolyticus 4069 = details: 4069; for MIC: individual component
Description: as §1, §2, §3, §4

S. haemolyticus 4070 = details: 4070; for MIC: individual component
Description: as §1, §2, §3, §4

B1: Garvicin KS: three-peptide leaderless bacteriocin (GarA, GarB, GarC; SEQ ID NO:6-8), peptides synthesized (peptide, listed as Lactococcus garvieae)
chain 1: MGAIIKAGAKIVGKGVLGGGASWLGWNVGEKIWK
chain 2: MGAIIKAGAKIIGKGLLGGAAGGATYGGLKKIFG
chain 3: MGAIIKAGAKIVGKGALTGGGVWLAEKLFGGK
MIC of the component in combination (S. haemolyticus 4071; 5 h, GarKS + MP1): 0.68 µg/mL | MIC of the component in combination (S. haemolyticus 4071; 5 h, K1-EJ + GarKS): 1.6 µg/mL | MIC of the component in combination (S. haemolyticus 4071; 5 h, K1-EJ + GarKS + MP1): 0.72 µg/mL | MIC (S. haemolyticus 4071; 5 h): 12.5 µg/mL | MIC of the component in combination (S. haemolyticus 4071; 24 h, GarKS + MP1): 6.3 µg/mL | MIC of the component in combination (S. haemolyticus 4071; 24 h, K1-EJ + GarKS): 12 µg/mL | MIC of the component in combination (S. haemolyticus 4071; 24 h, K1-EJ + GarKS + MP1): 1.6 µg/mL | MIC (S. haemolyticus 4071; 24 h): 51 µg/mL | MIC of the component in combination (S. haemolyticus 4071; 48 h, GarKS + MP1): 6.5 µg/mL | MIC of the component in combination (S. haemolyticus 4071; 48 h, K1-EJ + GarKS): 24 µg/mL | MIC of the component in combination (S. haemolyticus 4071; 48 h, K1-EJ + GarKS + MP1): 3.3 µg/mL | MIC (S. haemolyticus 4071; 48 h): 100 µg/mL | MIC of the component in combination (S. haemolyticus 4072; 5 h, GarKS + MP1): 0.73 µg/mL | MIC of the component in combination (S. haemolyticus 4072; 5 h, K1-EJ + GarKS): 1.5 µg/mL | MIC of the component in combination (S. haemolyticus 4072; 5 h, K1-EJ + GarKS + MP1): 0.68 µg/mL | MIC (S. haemolyticus 4072; 5 h): 23.6 µg/mL | MIC of the component in combination (S. haemolyticus 4072; 24 h, GarKS + MP1): 1.6 µg/mL | MIC of the component in combination (S. haemolyticus 4072; 24 h, K1-EJ + GarKS): 12 µg/mL | MIC of the component in combination (S. haemolyticus 4072; 24 h, K1-EJ + GarKS + MP1): 1.6 µg/mL | MIC (S. haemolyticus 4072; 24 h): 49 µg/mL | MIC of the component in combination (S. haemolyticus 4072; 48 h, GarKS + MP1): 3.1 µg/mL | MIC of the component in combination (S. haemolyticus 4072; 48 h, K1-EJ + GarKS): 13 µg/mL | MIC of the component in combination (S. haemolyticus 4072; 48 h, K1-EJ + GarKS + MP1): 5.8 µg/mL | MIC (S. haemolyticus 4072; 48 h): 52 µg/mL | MIC of the component in combination (S. haemolyticus 4068; 5 h, GarKS + MP1): 0.2 µg/mL | MIC of the component in combination (S. haemolyticus 4068; 5 h, K1-EJ + GarKS): 0.83 µg/mL | MIC of the component in combination (S. haemolyticus 4068; 5 h, K1-EJ + GarKS + MP1): 0.32 µg/mL | MIC (S. haemolyticus 4068; 5 h): 6.5 µg/mL | MIC of the component in combination (S. haemolyticus 4068; 24 h, GarKS + MP1): 0.32 µg/mL | MIC of the component in combination (S. haemolyticus 4068; 24 h, K1-EJ + GarKS): 3.1 µg/mL | MIC of the component in combination (S. haemolyticus 4068; 24 h, K1-EJ + GarKS + MP1): 0.78 µg/mL | MIC (S. haemolyticus 4068; 24 h): 24 µg/mL | MIC of the component in combination (S. haemolyticus 4068; 48 h, GarKS + MP1): 0.68 µg/mL | MIC of the component in combination (S. haemolyticus 4068; 48 h, K1-EJ + GarKS): 6 µg/mL | MIC of the component in combination (S. haemolyticus 4068; 48 h, K1-EJ + GarKS + MP1): 2.8 µg/mL | MIC (S. haemolyticus 4068; 48 h): 25 µg/mL | MIC of the component in combination (S. haemolyticus 4073; 5 h, GarKS + MP1): 0.2 µg/mL | MIC of the component in combination (S. haemolyticus 4073; 5 h, K1-EJ + GarKS): 1.7 µg/mL | MIC of the component in combination (S. haemolyticus 4073; 5 h, K1-EJ + GarKS + MP1): 0.33 µg/mL | MIC (S. haemolyticus 4073; 5 h): 12.5 µg/mL | MIC of the component in combination (S. haemolyticus 4073; 24 h, GarKS + MP1): 0.73 µg/mL | MIC of the component in combination (S. haemolyticus 4073; 24 h, K1-EJ + GarKS): 6.3 µg/mL | MIC of the component in combination (S. haemolyticus 4073; 24 h, K1-EJ + GarKS + MP1): 0.78 µg/mL | MIC (S. haemolyticus 4073; 24 h): 51 µg/mL | MIC of the component in combination (S. haemolyticus 4073; 48 h, GarKS + MP1): 0.83 µg/mL | MIC of the component in combination (S. haemolyticus 4073; 48 h, K1-EJ + GarKS): 12 µg/mL | MIC of the component in combination (S. haemolyticus 4073; 48 h, K1-EJ + GarKS + MP1): 1.6 µg/mL | MIC (S. haemolyticus 4073; 48 h): 51 µg/mL | MIC of the component in combination (S. haemolyticus 4069; 5 h, GarKS + MP1): 1.6 µg/mL | MIC of the component in combination (S. haemolyticus 4069; 5 h, K1-EJ + GarKS): 1.4 µg/mL | MIC of the component in combination (S. haemolyticus 4069; 5 h, K1-EJ + GarKS + MP1): 0.68 µg/mL | MIC (S. haemolyticus 4069; 5 h): 3.3 µg/mL | MIC of the component in combination (S. haemolyticus 4069; 24 h, GarKS + MP1): 25 µg/mL | MIC of the component in combination (S. haemolyticus 4069; 24 h, K1-EJ + GarKS): 6 µg/mL | MIC of the component in combination (S. haemolyticus 4069; 24 h, K1-EJ + GarKS + MP1): 3.3 µg/mL | MIC (S. haemolyticus 4069; 24 h): 13 µg/mL | MIC of the component in combination (S. haemolyticus 4069; 48 h, GarKS + MP1): 50 µg/mL | MIC of the component in combination (S. haemolyticus 4069; 48 h, K1-EJ + GarKS): 6.5 µg/mL | MIC of the component in combination (S. haemolyticus 4069; 48 h, K1-EJ + GarKS + MP1): 5.8 µg/mL | MIC (S. haemolyticus 4069; 48 h): 26 µg/mL | MIC of the component in combination (S. haemolyticus 4070; 5 h, GarKS + MP1): 0.2 µg/mL | MIC of the component in combination (S. haemolyticus 4070; 5 h, K1-EJ + GarKS): 0.72 µg/mL | MIC of the component in combination (S. haemolyticus 4070; 5 h, K1-EJ + GarKS + MP1): 0.32 µg/mL | MIC (S. haemolyticus 4070; 5 h): 12 µg/mL | MIC of the component in combination (S. haemolyticus 4070; 24 h, GarKS + MP1): 3.3 µg/mL | MIC of the component in combination (S. haemolyticus 4070; 24 h, K1-EJ + GarKS): 3.3 µg/mL | MIC of the component in combination (S. haemolyticus 4070; 24 h, K1-EJ + GarKS + MP1): 2.8 µg/mL | MIC (S. haemolyticus 4070; 24 h): 48 µg/mL | MIC of the component in combination (S. haemolyticus 4070; 48 h, GarKS + MP1): 6.3 µg/mL | MIC of the component in combination (S. haemolyticus 4070; 48 h, K1-EJ + GarKS): 6.3 µg/mL | MIC of the component in combination (S. haemolyticus 4070; 48 h, K1-EJ + GarKS + MP1): 5.8 µg/mL | MIC (S. haemolyticus 4070; 48 h): 51 µg/mL
